The target of this assay is McpB ligand-binding domain (LBD) of Ralstonia pseudosolanacearum Ps29 (Ralstonia pseudosolanacearum Ps29). Put plainly: AUC.

The results in this text go back to PMC5561266.

As a reminder, the stoichiometry N is a count of units in the complex or per binding partner.

Take “McpB ligand-binding domain (LBD) of Ralstonia pseudosolanacearum Ps29 (domain or fragment)”: the stoichiometry N worked out at 2.
